Experiments:
[1] = target: human DLL4 protein (human) (UniProt Q9NR61); test: ELISA, maximum over 0.1-100 nM
[2] = target: human DLL1 protein (human) (UniProt O00548); test: ELISA, maximum over 0.1-100 nM
[3] = target: human DLL3 endogenously expressed on SHP77 and NCI-H82 cells (human) (UniProt Q9NYJ7); test: FACS SHP77 cells, 20 nM
[4] = target: human DLL3 endogenously expressed on SHP77 and NCI-H82 cells (human) (UniProt Q9NYJ7); test: FACS SHP77 cells, 4 nM
[5] = target: human DLL3 endogenously expressed on SHP77 and NCI-H82 cells (human) (UniProt Q9NYJ7); test: FACS SHP77 cells, 0.0064 nM
[6] = target: human DLL3 endogenously expressed on SHP77 and NCI-H82 cells (human) (UniProt Q9NYJ7); test: FACS SHP77 cells, 0.032 nM
[7] = target: human DLL3 endogenously expressed on SHP77 and NCI-H82 cells (human) (UniProt Q9NYJ7); test: FACS SHP77 cells, 0.16 nM
[8] = target: human DLL3 endogenously expressed on SHP77 and NCI-H82 cells (human) (UniProt Q9NYJ7); test: FACS SHP77 cells, 0.8 nM
[9] = target: human DLL3 endogenously expressed on SHP77 and NCI-H82 cells (human) (UniProt Q9NYJ7); test: FACS SHP77 cells, 0.00128 nM
[10] = target: human DLL3 endogenously expressed on SHP77 and NCI-H82 cells (human) (UniProt Q9NYJ7); test: FACS SHP77 cells, 100 nM

Sequence of human DLL3 endogenously expressed on SHP77 and NCI-H82 cells (human) (Q9NYJ7 27-618): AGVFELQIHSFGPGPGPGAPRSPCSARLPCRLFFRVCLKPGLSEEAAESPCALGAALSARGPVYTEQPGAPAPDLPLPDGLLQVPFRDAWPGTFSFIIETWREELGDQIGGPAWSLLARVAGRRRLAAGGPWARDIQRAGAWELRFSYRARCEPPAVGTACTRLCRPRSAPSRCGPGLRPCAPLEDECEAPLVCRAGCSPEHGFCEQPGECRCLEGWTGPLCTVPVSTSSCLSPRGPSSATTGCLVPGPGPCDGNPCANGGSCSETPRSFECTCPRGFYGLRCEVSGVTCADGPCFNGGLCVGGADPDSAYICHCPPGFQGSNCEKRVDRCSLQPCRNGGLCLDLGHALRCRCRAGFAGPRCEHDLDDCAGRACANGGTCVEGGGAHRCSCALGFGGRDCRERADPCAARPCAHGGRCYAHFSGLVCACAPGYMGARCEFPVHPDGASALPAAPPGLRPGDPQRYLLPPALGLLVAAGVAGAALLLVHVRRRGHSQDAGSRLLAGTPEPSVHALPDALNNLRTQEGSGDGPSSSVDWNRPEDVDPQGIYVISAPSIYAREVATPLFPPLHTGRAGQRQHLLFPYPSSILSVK
Sequence of human DLL1 protein (human) (O00548 18-540 limits assumed): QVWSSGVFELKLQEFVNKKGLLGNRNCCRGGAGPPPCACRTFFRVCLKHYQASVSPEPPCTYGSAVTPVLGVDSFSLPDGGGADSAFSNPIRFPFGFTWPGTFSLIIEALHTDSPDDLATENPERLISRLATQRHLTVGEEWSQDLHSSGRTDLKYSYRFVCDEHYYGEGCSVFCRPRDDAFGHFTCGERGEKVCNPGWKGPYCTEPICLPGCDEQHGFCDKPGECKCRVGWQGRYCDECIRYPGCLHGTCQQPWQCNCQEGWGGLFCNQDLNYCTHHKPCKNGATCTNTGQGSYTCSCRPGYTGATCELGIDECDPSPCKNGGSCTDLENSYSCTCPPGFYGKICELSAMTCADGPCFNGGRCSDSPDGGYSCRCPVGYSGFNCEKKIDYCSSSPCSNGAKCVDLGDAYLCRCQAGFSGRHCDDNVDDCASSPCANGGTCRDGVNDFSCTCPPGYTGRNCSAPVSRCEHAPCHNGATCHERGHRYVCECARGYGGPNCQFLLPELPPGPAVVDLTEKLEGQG
Sequence of human DLL4 protein (human) (Q9NR61 27-524 limits assumed): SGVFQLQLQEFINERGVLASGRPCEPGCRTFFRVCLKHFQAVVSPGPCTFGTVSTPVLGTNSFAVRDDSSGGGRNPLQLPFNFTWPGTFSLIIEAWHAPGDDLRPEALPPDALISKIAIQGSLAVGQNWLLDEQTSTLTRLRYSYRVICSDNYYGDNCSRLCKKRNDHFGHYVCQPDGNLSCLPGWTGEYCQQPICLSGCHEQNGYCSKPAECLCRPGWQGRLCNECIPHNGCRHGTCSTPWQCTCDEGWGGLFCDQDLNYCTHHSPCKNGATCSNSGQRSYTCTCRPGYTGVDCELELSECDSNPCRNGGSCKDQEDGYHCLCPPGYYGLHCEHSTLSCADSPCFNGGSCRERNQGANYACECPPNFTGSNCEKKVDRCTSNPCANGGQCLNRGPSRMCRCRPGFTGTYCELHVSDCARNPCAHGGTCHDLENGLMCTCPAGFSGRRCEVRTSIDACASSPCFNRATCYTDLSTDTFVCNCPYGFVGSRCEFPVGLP

Binder | Emax of OD450 nm binding value [1] [OD450] | Emax of OD450 nm binding value [2] [OD450] | MFI [3] [MFI] | MFI [4] [MFI] | MFI [5] [MFI] | MFI [6] [MFI] | MFI [7] [MFI] | MFI [8] [MFI] | MFI [9] [MFI] | MFI [10] [MFI]
mab010 scFv-hFc (Fc fusion, not shown: small tags and cut ends; a dimerising Fc or GST) scFv (part 1 of 2): DIQMTQSPASLSVSVGETVTITCRASENINSNLAWYQQKQGKSPQLLVYAATNLADGVPSRFSGSGSGTQFSLKISGLQSEDFGSYYCQHFWGLPWTFGGGTKLEIR scFv (part 2 of 2): QVQLQQSGAELARPGASMKLSCKASGYTFTSYGISWVKQITGQGLEWIGEIFPRSGNTYDNENFRGKATLTADKSSSTAYLEVRSLTSEDSAVYFCARTTVFAPYYFDYWGQGTTLTVSS | 0.06 | 1.16 | 855 | 707 | 161 | 278 | 523 | 619 | 113 | 1140
mab012 scFv-hFc (Fc fusion, not shown: small tags and cut ends; a dimerising Fc or GST) scFv (part 1 of 2): DVLMTQTPLSLPVSLGDQASISCRSSQSIVHSDGNTYLEWYLQKPGQSPKLLIYKVSNRFSGVPDRFSGSGSGTDFTLKISRVEAEDLGFYYCFQGSHVPFTFGSGTKLEIK scFv (part 2 of 2): QVQLQQSGPELVKPGASVKISCKASGYTFTDYYIHWVKQRPGQGLEWIGWTLPGSGSPYYNEKFKGKATLTVDKSSSTAYMLLSSLTSEDSAVYFCARWHYYYGSSYHFDYWGQGTTLTVSS | – | – | 729 | 337 | 94 | 98 | 110 | 164 | 94 | 1100
mab016 scFv-hFc (Fc fusion, not shown: small tags and cut ends; a dimerising Fc or GST) scFv (part 1 of 2): DIVMTQSQKFMSTTIGDRVSITCKASQNVGTTVAWYQQKPGQSPNLLLYSTSNRFTGVPDRFTGSGSGTDFTLTITNMQSEDLADYFCQQYNNYPLTFGGGTKLEIK scFv (part 2 of 2): EVNLEESGGGLVQPGGSMKLSCVASGFAFSNFWMQWVRQSPEKGLEWVAQIRLKSDNYAAHYAESVKGRFTISRDDSKSSVYLQLNNLRAEDTGTYYCTQGNWVGFAYWGQGTLVTVSA | – | – | 653 | 546 | 121 | 202 | 391 | 502 | 96 | 790
